Measured values published in paper PMC9475553, “SHF Acts as a Novel Tumor Suppressor in Glioblastoma Multiforme by Disrupting STAT3 Dimerization” (Advanced Science, 2022).

Biological target: T1, recombinant STAT3 (immobilized, static adsorption assay) (UniProt P40763 1-770)
T1 construct: STAT3, called 'recombinant STAT3' in the legend and 'immobilized STAT3 peptide' in the results; also called immobilized STAT3; STAT3 (powder)
Test: static adsorption equilibrium assay; immobilized STAT3 (85 nmol g^-1 wet gel) in 20 mL PBS with 2-20 µM C16 or scramble, stirred 12 h; free peptide by absorbance at 240 nm; Langmuir isotherm
Conditions: both partners purified

T1 sequence (P40763 whole entry): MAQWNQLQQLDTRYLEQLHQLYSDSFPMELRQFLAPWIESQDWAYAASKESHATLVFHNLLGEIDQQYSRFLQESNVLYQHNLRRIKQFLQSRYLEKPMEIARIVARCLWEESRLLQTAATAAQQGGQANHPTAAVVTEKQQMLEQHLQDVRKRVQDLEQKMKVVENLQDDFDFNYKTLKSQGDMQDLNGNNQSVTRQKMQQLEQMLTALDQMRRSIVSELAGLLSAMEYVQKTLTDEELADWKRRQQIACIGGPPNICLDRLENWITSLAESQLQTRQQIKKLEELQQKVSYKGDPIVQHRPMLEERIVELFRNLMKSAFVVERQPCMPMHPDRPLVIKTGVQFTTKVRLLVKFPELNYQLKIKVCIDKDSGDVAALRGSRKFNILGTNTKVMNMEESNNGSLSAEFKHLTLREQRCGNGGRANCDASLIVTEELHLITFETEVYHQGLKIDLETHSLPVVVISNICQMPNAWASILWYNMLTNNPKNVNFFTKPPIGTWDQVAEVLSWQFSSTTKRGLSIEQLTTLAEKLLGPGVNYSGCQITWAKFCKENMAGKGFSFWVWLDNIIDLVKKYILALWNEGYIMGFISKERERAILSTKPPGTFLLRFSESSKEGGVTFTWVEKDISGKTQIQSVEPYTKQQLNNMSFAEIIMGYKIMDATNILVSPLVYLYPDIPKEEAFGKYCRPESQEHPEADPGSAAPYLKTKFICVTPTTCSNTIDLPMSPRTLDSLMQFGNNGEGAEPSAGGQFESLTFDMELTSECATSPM

stoichiometry N: 1
B1: C16 peptide (derived from the STAT3-binding sites of SHF) (peptide, UniProt Q7M4L6 388-421, looked up)
peptide: PFSSVPEIVHHYASRKLPIKGAEHMSLLYPVAIR
modifications: palmitic acid at the N-terminus; amidated C-terminus
notes: '3× His tags' is not explained further (three histidines or three His tags); source: synthetic peptide (Genscript; solid-phase Fmoc synthesis, RP-HPLC, purity above 95%); not shown: 3× His tags, C-terminal, kept
